Measurements as given in paper PMC7171172.

Target: Rhodobacter capsulatus formate dehydrogenase subunit FdsA (Rhodobacter capsulatus)
Test: cryo-EM structure; single particle analysis of the co-expressed, co-purified RcFDH complex (100 µg/ml), as isolated with 10 mM azide and after 5 min with 2 mM NADH; C2 symmetry imposed; 3.3 Å and 3.2 Å

## Rhodobacter capsulatus formate dehydrogenase subunit FdsA (natural protein)
  stoichiometry N: 2
